In the supplement of paper PMC9112550, “Optimization of the antimicrobial peptide Bac7 by deep mutational scanning” (BMC Biology, 2022):

system: Escherichia coli TOP10; experiment: shrunken log2 fold change of peptide-encoding DNA abundance (4.5 h post-induction vs induction); higher = less antimicrobial activity (less host growth inhibition); conditions: time post-induction: 4.5 h; library: site-saturation at positions 5, 18, 19, 20
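Also: peptides expressed intracellularly from a pBAD plasmid library in pooled LB shake-flask culture, induced with 0.3% L-arabinose, DNA abundance read by NGS, three biological replicates, DESeq2 with apeglm shrinkage.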

Going from RRIRNRPPRLPRPRPRPPGEPRP to RRIRCRPPRLPRPRPRPFDTPRP, the “shrunken log2 fold change” value falls from 0.0757 to -0.192.

RRIRERPPRLPRPRPRPDAPPRP and RRIRVRPPRLPRPRPRPEFCPRP are within 0.2 log units of each other in “shrunken log2 fold change” value: 0.0716 for the first, 0.267 for the second.

Compared with RRIRVRPPRLPRPRPRPGGKPRP, RRIRMRPPRLPRPRPRPGQEPRP is higher in “shrunken log2 fold change” value: 0.171 for the first, 0.605 for the second.

Going from RRIRGRPPRLPRPRPRPIQLPRP to RRIRRRPPRLPRPRPRPKLFPRP, the “shrunken log2 fold change” value rises from 0.043 to 0.37.

Compared with RRIRLRPPRLPRPRPRPWQKPRP, RRIRRRPPRLPRPRPRPEGHPRP is higher in “shrunken log2 fold change” value: 0.0576 for the first, 0.488 for the second.

RRIRIRPPRLPRPRPRPECGPRP and RRIRTRPPRLPRPRPRPNWVPRP are within 0.2 log units of each other in “shrunken log2 fold change” value: -0.118 for the first, -0.159 for the second.

Compared with RRIRIRPPRLPRPRPRPMDCPRP, RRIRIRPPRLPRPRPRPHHYPRP is lower in “shrunken log2 fold change” value: -0.115 for the first, -0.429 for the second.

Going from RRIRYRPPRLPRPRPRPAPGPRP to RRIRKRPPRLPRPRPRPTSYPRP, the “shrunken log2 fold change” value falls from 0.391 to -0.152.

RRIRIRPPRLPRPRPRPLCWPRP and RRIRPRPPRLPRPRPRPQLHPRP are within 0.2 log units of each other in “shrunken log2 fold change” value: -0.0614 for the first, -0.0604 for the second.

Compared with RRIRHRPPRLPRPRPRPGPAPRP, RRIRLRPPRLPRPRPRPNPSPRP is lower in “shrunken log2 fold change” value: 0.871 for the first, 0.104 for the second.

Going from RRIRQRPPRLPRPRPRPKVYPRP to RRIRTRPPRLPRPRPRPDFAPRP, the “shrunken log2 fold change” value rises from -0.177 to 0.176.

Compared with RRIRLRPPRLPRPRPRPICIPRP, RRIRLRPPRLPRPRPRPWVFPRP is higher in “shrunken log2 fold change” value: -0.579 for the first, 0.163 for the second.

Going from RRIRKRPPRLPRPRPRPYYTPRP to RRIRIRPPRLPRPRPRPHGNPRP, the “shrunken log2 fold change” value rises from -0.34 to 0.142.

Compared with RRIRERPPRLPRPRPRPLLNPRP, RRIRVRPPRLPRPRPRPFNDPRP is lower in “shrunken log2 fold change” value: 0.0481 for the first, -0.416 for the second.

RRIRGRPPRLPRPRPRPNIYPRP and RRIRMRPPRLPRPRPRPQCIPRP are within 0.2 log units of each other in “shrunken log2 fold change” value: -0.13 for the first, 0.0157 for the second.

Going from RRIRHRPPRLPRPRPRPDRFPRP to RRIRHRPPRLPRPRPRPSWTPRP, the “shrunken log2 fold change” value falls from -0.00476 to -0.356.

First: RRIRDRPPRLPRPRPRPQPGPRP
Second: RRIRPRPPRLPRPRPRPQPPPRP
The “shrunken log2 fold change” value of the first is lower: 0.237 for the first, 0.509 for the second.

RRIRPRPPRLPRPRPRPQECPRP and RRIRYRPPRLPRPRPRPCELPRP are within 0.2 log units of each other in “shrunken log2 fold change” value: 0.0456 for the first, -0.0555 for the second.

Compared with RRIRARPPRLPRPRPRPRRDPRP, RRIRKRPPRLPRPRPRPYMQPRP is lower in “shrunken log2 fold change” value: 0.656 for the first, -0.0263 for the second.

Compared with RRIRKRPPRLPRPRPRPFREPRP, RRIRNRPPRLPRPRPRPYIQPRP is lower in “shrunken log2 fold change” value: 0.223 for the first, -0.244 for the second.

Compared with RRIRCRPPRLPRPRPRPVTHPRP, RRIRYRPPRLPRPRPRPVRPPRP is higher in “shrunken log2 fold change” value: -0.29 for the first, 0.924 for the second.

RRIRLRPPRLPRPRPRPFCVPRP and RRIRVRPPRLPRPRPRPDACPRP are within 0.2 log units of each other in “shrunken log2 fold change” value: -0.265 for the first, -0.11 for the second.

RRIRTRPPRLPRPRPRPDRKPRP and RRIRLRPPRLPRPRPRPMDRPRP are within 0.2 log units of each other in “shrunken log2 fold change” value: 0.00258 for the first, -0.0152 for the second.

First: RRIRSRPPRLPRPRPRPAENPRP
Second: RRIRSRPPRLPRPRPRPCMTPRP
The “shrunken log2 fold change” value of the first is higher: 0.151 for the first, -0.102 for the second.

RRIRMRPPRLPRPRPRPYNMPRP and RRIRIRPPRLPRPRPRPPVNPRP are within 0.2 log units of each other in “shrunken log2 fold change” value: -0.348 for the first, -0.456 for the second.

Compared with RRIRTRPPRLPRPRPRPYLLPRP, RRIRDRPPRLPRPRPRPATWPRP is higher in “shrunken log2 fold change” value: -0.654 for the first, 0.754 for the second.

RRIRFRPPRLPRPRPRPCAIPRP and RRIRCRPPRLPRPRPRPEERPRP are within 0.2 log units of each other in “shrunken log2 fold change” value: -0.0259 for the first, -0.0298 for the second.

Compared with RRIRNRPPRLPRPRPRPLATPRP, RRIRRRPPRLPRPRPRPWPPPRP is higher in “shrunken log2 fold change” value: 0.292 for the first, 0.514 for the second.

Compared with RRIRCRPPRLPRPRPRPQYMPRP, RRIRCRPPRLPRPRPRPWILPRP is higher in “shrunken log2 fold change” value: -0.784 for the first, -0.357 for the second.

Compared with RRIRTRPPRLPRPRPRPLLPPRP, RRIRRRPPRLPRPRPRPYATPRP is higher in “shrunken log2 fold change” value: 0.112 for the first, 0.418 for the second.

RRIRDRPPRLPRPRPRPNPDPRP and RRIRYRPPRLPRPRPRPMDYPRP are within 0.2 log units of each other in “shrunken log2 fold change” value: -0.0924 for the first, -0.218 for the second.

RRIRRRPPRLPRPRPRPNFRPRP and RRIRLRPPRLPRPRPRPDIPPRP are within 0.2 log units of each other in “shrunken log2 fold change” value: 0.0627 for the first, -0.0741 for the second.

RRIRNRPPRLPRPRPRPDWNPRP and RRIRDRPPRLPRPRPRPHCEPRP are within 0.2 log units of each other in “shrunken log2 fold change” value: -0.212 for the first, -0.0477 for the second.

First: RRIRGRPPRLPRPRPRPCAQPRP
Second: RRIRMRPPRLPRPRPRPCEMPRP
The “shrunken log2 fold change” value of the first is higher: 1.07 for the first, 0.084 for the second.

First: RRIRFRPPRLPRPRPRPSWPPRP
Second: RRIRRRPPRLPRPRPRPPQGPRP
The “shrunken log2 fold change” value of the first is lower: -0.0802 for the first, 0.856 for the second.

Going from RRIRDRPPRLPRPRPRPMFDPRP to RRIRCRPPRLPRPRPRPVACPRP, the “shrunken log2 fold change” value falls from 0.894 to -0.0888.

RRIRERPPRLPRPRPRPRLHPRP and RRIRFRPPRLPRPRPRPDRGPRP are within 0.2 log units of each other in “shrunken log2 fold change” value: 0.047 for the first, 0.0145 for the second.

First: RRIRLRPPRLPRPRPRPKCGPRP
Second: RRIRPRPPRLPRPRPRPWATPRP
The “shrunken log2 fold change” value of the first is higher: 0.338 for the first, -0.213 for the second.

Going from RRIRGRPPRLPRPRPRPCVPPRP to RRIRHRPPRLPRPRPRPFHGPRP, the “shrunken log2 fold change” value falls from 0.307 to -0.121.

RRIRHRPPRLPRPRPRPQKFPRP and RRIRTRPPRLPRPRPRPRKNPRP are within 0.2 log units of each other in “shrunken log2 fold change” value: -0.0301 for the first, 0.136 for the second.

Compared with RRIRARPPRLPRPRPRPPFMPRP, RRIRIRPPRLPRPRPRPNYDPRP is lower in “shrunken log2 fold change” value: 0.376 for the first, -0.638 for the second.

First: RRIRNRPPRLPRPRPRPIRQPRP
Second: RRIRSRPPRLPRPRPRPIFLPRP
The “shrunken log2 fold change” value of the first is higher: 0.0261 for the first, -0.335 for the second.

RRIRPRPPRLPRPRPRPCTFPRP and RRIRDRPPRLPRPRPRPDHTPRP are within 0.2 log units of each other in “shrunken log2 fold change” value: -0.00278 for the first, 0.0303 for the second.

First: RRIRNRPPRLPRPRPRPIHYPRP
Second: RRIRGRPPRLPRPRPRPTEIPRP
The “shrunken log2 fold change” value of the first is lower: -0.285 for the first, 0.284 for the second.

RRIRRRPPRLPRPRPRPVIQPRP and RRIRVRPPRLPRPRPRPSQWPRP are within 0.2 log units of each other in “shrunken log2 fold change” value: 0.177 for the first, 0.0963 for the second.

First: RRIRIRPPRLPRPRPRPGWVPRP
Second: RRIRERPPRLPRPRPRPIPWPRP
The “shrunken log2 fold change” value of the first is higher: 0.28 for the first, -0.345 for the second.

Going from RRIRNRPPRLPRPRPRPIRNPRP to RRIRARPPRLPRPRPRPQELPRP, the “shrunken log2 fold change” value rises from -0.422 to 0.0199.

Compared with RRIRYRPPRLPRPRPRPKTWPRP, RRIRYRPPRLPRPRPRPMYMPRP is lower in “shrunken log2 fold change” value: -0.132 for the first, -2.38 for the second.

Compared with RRIRARPPRLPRPRPRPDGMPRP, RRIRRRPPRLPRPRPRPGENPRP is higher in “shrunken log2 fold change” value: -0.141 for the first, 0.066 for the second.

RRIRTRPPRLPRPRPRPNRFPRP and RRIRQRPPRLPRPRPRPKERPRP are within 0.2 log units of each other in “shrunken log2 fold change” value: -0.00879 for the first, -0.00138 for the second.

First: RRIRMRPPRLPRPRPRPELKPRP
Second: RRIRWRPPRLPRPRPRPVPRPRP
The “shrunken log2 fold change” value of the first is higher: 0.95 for the first, 0.549 for the second.

RRIRHRPPRLPRPRPRPDGPPRP and RRIRTRPPRLPRPRPRPQDAPRP are within 0.2 log units of each other in “shrunken log2 fold change” value: -0.0182 for the first, -0.0107 for the second.

RRIRERPPRLPRPRPRPCHNPRP and RRIRMRPPRLPRPRPRPDNIPRP are within 0.2 log units of each other in “shrunken log2 fold change” value: -0.0168 for the first, -0.184 for the second.

RRIRQRPPRLPRPRPRPDTIPRP and RRIRHRPPRLPRPRPRPVFFPRP are within 0.2 log units of each other in “shrunken log2 fold change” value: 0.0406 for the first, -0.0644 for the second.

In the case of RRIRWRPPRLPRPRPRPQMDPRP, the “shrunken log2 fold change” value is reported as -0.12.
